Values quoted from earlier work as cited in PMC8698604.
Read-outs that look alike come from different tables or passages of the source.

Columns and labels:
[1] = biological target: fibrin (Homo sapiens) (UniProt P02671)
[2] = biological target: fibrin (Homo sapiens) (UniProt P02671); remark: listed apart in the source
[3] = biological target: plasmin (Homo sapiens) (UniProt P00747)
[4] = biological target: plasmin (Homo sapiens) (UniProt P00747); remark: listed apart in the source
[5] = biological target: plasminogen (Homo sapiens) (UniProt P00747)
[6] = biological target: plasminogen (Homo sapiens) (UniProt P00747); experiment: fluorescence
[7] = biological target: t-PA (Homo sapiens) (UniProt P00750)
[8] = biological target: plasmin (Homo sapiens) (UniProt P00747); remark: listed apart in the source
[9] = biological target: plasminogen (Homo sapiens) (UniProt P00747); remark: listed apart in the source
[10] = biological target: t-PA (Homo sapiens) (UniProt P00750); remark: listed apart in the source

UniProt P00750, sequence (P00750 36-562): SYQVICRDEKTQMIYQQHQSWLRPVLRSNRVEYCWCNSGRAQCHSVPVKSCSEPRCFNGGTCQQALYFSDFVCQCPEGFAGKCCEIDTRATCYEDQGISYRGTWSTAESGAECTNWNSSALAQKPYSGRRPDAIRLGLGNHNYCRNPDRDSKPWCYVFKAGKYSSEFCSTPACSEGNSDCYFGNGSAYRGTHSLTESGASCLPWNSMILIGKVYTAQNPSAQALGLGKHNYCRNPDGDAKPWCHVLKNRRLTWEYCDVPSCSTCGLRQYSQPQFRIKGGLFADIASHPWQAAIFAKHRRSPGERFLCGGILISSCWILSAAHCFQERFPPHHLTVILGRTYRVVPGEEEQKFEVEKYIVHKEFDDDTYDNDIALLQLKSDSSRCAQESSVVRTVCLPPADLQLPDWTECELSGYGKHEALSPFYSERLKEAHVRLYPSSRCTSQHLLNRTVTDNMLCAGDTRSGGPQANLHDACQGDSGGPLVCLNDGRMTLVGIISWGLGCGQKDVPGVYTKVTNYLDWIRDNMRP

In the case of plasminogen (from UniProt P00747), the Kd [1] is listed as 30000 nM and the Kd [2] is listed as 300 nM.

For ANXA2 (from UniProt P07355), the Kd [3] is given as 780 nM.

In the case of “AIIt (ANXA2/S100A10) (from UniProt P07355)”, the Kd [4] is listed as 75 nM, the Kd [5] is listed as 110 nM and the Kd [6] is listed as 1000 nM. The Kd [7] was 680 nM.

In the case of S100A10 (from UniProt P60903), the Kd [8] is given as 360 nM, the Kd [9] is given as 1810 nM and the Kd [10] is given as 450 nM.
